{"source": "patent US20100196361A1", "about": "(published 2010)", "binders": {"B1": {"name": "DX-2220 (full length IgG1, germlined human anti-Tie1 antibody E3b) (antibody, V domains shown)", "VH": "EVQLLESGGGLVQPGGSLRLSCAASGFTFSMYGMVWVRQAPGKGLEWVSVISPSGGNTGYADSVKGRFTISRDNSKNTLYLQMNSLRAEDTAVYYCARAPRGYSYGYYYWGQGTLVTVSS", "VL": "DIQMTQSPSSLSASVGDRVTITCRASQGIGHYLAWYQQKPGKVPKLLIYTASTLQSGVPSRFSGSGSGTDFTLTISSLQPEDVATYYCQQFNSYPHTFGQGTRLEIKR", "notes": "Heavy and light chain frameworks germlined; also called E3b-IgG1; germlined E3b IgG1"}}, "molecular_target": "T1, Tie1-Fc immobilized on a CM5 chip (species not stated)", "T1 construct": "also called immobilized Tie1-Fc", "test": "SPR, Tie1-Fc immobilized to the CM5 sensor chip, bivalent anti-Tie1 as analyte", "protocol": "Affinity analysis of the Fab and IgGs was performed using surface plasmon resonance using a BIAcore 3000 instrument. For this analysis both dimeric (Tie1-Fc fusion protein) and monomeric (Tie1-HIS) versions of the extracellular domain of the Tie1 were used. The sensor chips used in these experiments were CM5 (dextran-coated) which allow immobilization of proteins to the chip via standard amine coupling chemistries. The concentration of flowed antibody was determined using a surface plasmon resonance based method. Using a high-density protein A sensor chip, under mass transport limited conditions, the response signal is dependent only on the concentration of the antibody in the sample under test. This approach allows a precise determination of the antibody concentration, a parameter important for accurate determination of the KD."}
{"binder": "B1", "values": [{"measurement": "Kd", "result": 0.2, "unit": "nM"}, {"measurement": "fold increase in affinity (against the anti-Tie1 Fab)", "result": "> 10", "unit": "fold"}]}
